Test [1] has as its target T1, syntaxin-4 ΔTM (residues 1–275) (human, UniProt Q12846 1-275).
T1 sequence (looked up): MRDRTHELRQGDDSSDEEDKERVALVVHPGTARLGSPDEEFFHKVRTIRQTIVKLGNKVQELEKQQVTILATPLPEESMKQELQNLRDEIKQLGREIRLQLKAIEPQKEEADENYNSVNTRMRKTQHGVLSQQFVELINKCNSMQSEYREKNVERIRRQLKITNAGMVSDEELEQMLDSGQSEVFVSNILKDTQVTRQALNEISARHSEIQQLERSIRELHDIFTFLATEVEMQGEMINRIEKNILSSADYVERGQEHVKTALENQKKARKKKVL
The experiment in a line: FRET or BRET.

The target in test [2] is T2, Munc13-4 (full-length human, recombinant) (human, UniProt Q70J99 1-1090).
T2 sequence (looked up): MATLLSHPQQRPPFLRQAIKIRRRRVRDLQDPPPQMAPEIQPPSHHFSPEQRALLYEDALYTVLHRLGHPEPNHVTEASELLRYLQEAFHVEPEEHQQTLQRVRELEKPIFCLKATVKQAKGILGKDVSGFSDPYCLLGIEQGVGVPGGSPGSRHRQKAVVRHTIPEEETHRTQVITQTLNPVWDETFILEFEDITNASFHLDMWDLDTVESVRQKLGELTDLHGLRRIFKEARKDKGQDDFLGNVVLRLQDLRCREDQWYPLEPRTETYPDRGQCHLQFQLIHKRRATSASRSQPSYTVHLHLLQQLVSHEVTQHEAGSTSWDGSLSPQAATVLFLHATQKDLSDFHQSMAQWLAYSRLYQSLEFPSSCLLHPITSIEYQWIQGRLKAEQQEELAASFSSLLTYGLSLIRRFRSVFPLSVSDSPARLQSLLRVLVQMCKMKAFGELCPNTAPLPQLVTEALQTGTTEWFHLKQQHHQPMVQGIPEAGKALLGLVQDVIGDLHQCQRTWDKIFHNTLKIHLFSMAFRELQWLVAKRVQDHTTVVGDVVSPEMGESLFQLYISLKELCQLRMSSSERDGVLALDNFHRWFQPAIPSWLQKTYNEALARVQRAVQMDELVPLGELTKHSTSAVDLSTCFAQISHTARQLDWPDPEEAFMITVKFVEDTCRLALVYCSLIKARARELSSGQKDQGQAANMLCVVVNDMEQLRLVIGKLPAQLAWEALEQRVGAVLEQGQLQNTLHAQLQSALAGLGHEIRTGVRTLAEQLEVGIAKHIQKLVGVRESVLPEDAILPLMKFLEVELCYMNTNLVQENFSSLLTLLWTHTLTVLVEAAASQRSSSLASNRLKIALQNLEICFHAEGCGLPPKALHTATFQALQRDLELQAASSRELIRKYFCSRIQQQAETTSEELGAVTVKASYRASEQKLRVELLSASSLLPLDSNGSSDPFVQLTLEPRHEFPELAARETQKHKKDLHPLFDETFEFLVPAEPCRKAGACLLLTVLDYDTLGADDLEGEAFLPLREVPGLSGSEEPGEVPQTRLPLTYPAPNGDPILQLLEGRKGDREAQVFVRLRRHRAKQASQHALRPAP
In words: pull-down.

From publication PMC12518824 (Nature Communications, 2025) come the findings set out here.

B1: VAMP-7 SNARE motif (residues 123–187, A131C) labeled with BODIPY FL (domain or fragment, human, UniProt P51809 123-187, looked up)
chain: LDKVMETQC(BODIPY FL)QVDELKGIMVRNIDLVAQRGERLELLIDKTENLVDSSVTFKTTSRNLARAMCMKNL
As for B1, in test [1], the binding result is reported as “binds”.

B2: GST-VAMP-7 SNARE motif (residues 123–187) (domain or fragment, human, UniProt P51809 123-187, looked up)
chain: LDKVMETQAQVDELKGIMVRNIDLVAQRGERLELLIDKTENLVDSSVTFKTTSRNLARAMCMKNL
As for B2, in test [2], the binding result is on record as “binds”.

B3: GST-Rab27a (full-length) (natural protein, human, UniProt P51159 1-221, looked up)
chain: MSDGDYDYLIKFLALGDSGVGKTSVLYQYTDGKFNSKFITTVGIDFREKRVVYRASGPDGATGRGQRIHLQLWDTAGQERFRSLTTAFFRDAMGFLLLFDLTNEQSFLNVRNWISQLQMHAYCENPDIVLCGNKSDLEDQRVVKEEEAIALAEKYGIPYFETSAANGTNISQAIEMLLDLIMKRMERCVDKSWIPEGVVRSNGHASTDQLSEEKEKGACGC
B3: the binding result in test [2] is recorded as “binds”.
